Measurements: patent publication US20220323445A1, “REDUCING IMMUNOGENICITY TO PEGLOTICASE” (Horizon Therapeutics Ireland DAC, priority 2020, published 2022)

Test system: serum uric acid (sUA)
Assay: Serum uric acid (sUA) levels and sUA responders, open-label study of pegloticase with MTX (NCT03635957)
Format: in vivo, human
Experimental: The primary objective is to estimate the response rate during Month 6 (Weeks 20, 22, and 24), as measured by the sustained normalization of serum uric acid (SUA) to <6 mg/dL for at least 80% of the time during Month 6 in subjects receiving KXX with MTX.
The primary efficacy outcome endpoint is the sustained normalization of SUA to <6 mg/dL for at least 80% of the time during month 6 (weeks 20, 22, and 24) in subjects receiving KXX with MTX. This is slightly below the urate solubility threshold and this threshold has been the accepted standard for nearly all modern gout trials. Participants who achieve this endpoint were classified as “responders.” Serum uric acid (SUA) responders may also be defined as participants achieving and maintaining SUA <6 mg/dL for at least 80% of the time during Month 6 (Weeks 20, 22, and 24).
Blood samples may be collected prior to each pegloticase infusion for measurement of SUA levels using the Beckman Coulter AU System Uric Acid procedure. Participants were declared “non-responders” if there were SUA measures >6 mg/dL at 2 consecutive study visits beginning with the week 2 visit. […] If the SUA goal is not maintained before or at the 12-week mark, it was assumed that the participant had developed clinically relevant anti-pegloticase antibody and they received no further infusions. This assumption and subsequent discontinuation of pegloticase was consistent with the protocol of large phase III randomized controlled trials and the product label. A formal stopping rule was 2 occasions of SUA levels of greater than 6 mg/dL.
Clinical Chemistry—Blood samples were collected prior to each pegloticase infusion for measurement of SUA levels (primary efficacy parameter) using the Beckman Coulter AU System Uric Acid procedure. In this procedure uric acid is converted to hydrogen peroxide. Hydrogen peroxide reacts with reagent to produce a chromophore which is read bichromatically at 660/800 nm. The amount of dye formed is proportional to the uric acid concentration in the sample.
Serum samples for measurement of SUA levels were collected at the Screening Visit, the Week −4 Visit (prior to the first dose of MTX), and the Week −2 Visit during the MTX Run-in Period; within 48 hours prior to each pegloticase infusion and after the end of each pegloticase infusion prior to discharge from the site during the Pegloticase+IMM Period; at the non-infusion Week 52/End of Study/Early Termination Visits and at the Post Treatment 3 and 6 Month Follow-up Visits. Additional serum samples for SUA levels were collected at optional non-infusion (Frequent Sampling) Visits at Weeks 1 and 7. […] Subjects with SUA level >6 mg/dL at 2 consecutive visits beginning at Week 2 visit discontinued treatment, completed the End of Pegloticase Infusion Visit procedures within 2 weeks and continued the subject visits according to the protocol (without treatment).
Efficacy analyses were performed using the modified intention-to-treat (mITT) population, defined as all enrolled subjects who received ≥1 dose of pegloticase. The proportion of Month 6 responders was summarized, along with a 95% confidence interval for the proportion. The proportion of Month 3 and overall (Months 3 and 6 combined) responders was analyzed similarly.
A subject was declared a non-responder if the subject had SUA level >6 mg/dL at 2 consecutive study visits beginning with the Week 2 Visit. In addition, a subject who withdraws from study treatment for any reason after the first dose of pegloticase in the KXX+MTX Period and prior to Month 6 (for the primary endpoint) or Month 3 (for the secondary endpoint) was considered a non-responder if SUA values were not collected at the planned time points.
Patients were administered oral MTX (15 mg/week) and folate (1 mg/day) 4 weeks prior to the first pegloticase infusion (Day 1) and throughout the pegloticase treatment period. […]

[1] = Week 18 - Pre-Infusion, Month 6 sUA Responders
[2] = Week 18 - Pre-Infusion, mITT, n=11
[3] = Week 20 - Post-Infusion, Month 6 sUA Responders
[4] = Week 20 - Post-Infusion, mITT, n=11
[5] = Week 20 - Pre-Infusion, Month 6 sUA Responders
[6] = Week 20 - Pre-Infusion, mITT, n=11
[7] = Week 22 - Post-Infusion, Month 6 sUA Responders
[8] = Week 22 - Post-Infusion, mITT, n=11
[9] = Week 22 - Pre-Infusion, Month 6 sUA Responders
[10] = Week 22 - Pre-Infusion, mITT, n=11
[11] = Week 24 - Post-Infusion, Month 6 sUA Responders
[12] = Week 24 - Post-Infusion, mITT, n=5
[13] = Week 24 - Pre-Infusion, Month 6 sUA Responders

B1: pegloticase (protein)
chain: TYKKNDEVEFVRTGYGKDMIKVLHIQRDGKYHSIKEVATTVQLTLSSKKDYLHGDNSDVIPTDTIKNTVNVLAKFKGIKSIETFAVTICEHFLSSFKHVIRAQVYVEEVPWKRFEKNGVKHVHAFIYTPTGTHFCEVEQIRNGPPVIHSGIKDLKVLKTTQSGFEGFIKDQFTTLPEVKDRCFATQVYCKWRYHQGRDVDFEATWDTVRSIVLQKFAGPYDKGEYSPSVQKTLYDIQVLTLGQVPEIEDMEISLPNIHYLNIDMSKMGLINKEEVLLPLDNPYGKITGTVKRKLSSRL
modifications: monomethoxy PEG conjugated; Krystexxa Sequence
notes: covalent conjugate of uricase produced by a genetically modified strain of Escherichia coli and monomethoxypoly (ethylene glycol)
[1]
  sUA Change from Baseline, Mean: -8.97 mg/dL
  sUA Change from Baseline, Median: -8.80 mg/dL
  sUA Observed, Mean: 0.30 mg/dL
  sUA Observed, Median: 0.30 mg/dL
[2]
  sUA < 6 mg/dL, n (%): 11 (100%)
  sUA Change from Baseline, Mean (SD): −8.97 (2.810) mg/dL
  sUA Change from Baseline, Median: -8.80 mg/dL
  sUA Observed, Mean (SD): 0.30 (0.000) mg/dL
  sUA Observed, Median: 0.30 mg/dL
[3]
  sUA < 6 mg/dL, %: (100%)
  sUA Change from Baseline, Mean: -8.97 mg/dL
  sUA Change from Baseline, Median: -8.80 mg/dL
  sUA Observed, Mean: 0.30 mg/dL
  sUA Observed, Median: 0.30 mg/dL
[4]
  sUA < 6 mg/dL, n (%): 11 (100%)
  sUA Change from Baseline, Mean (SD): −8.97 (2.810) mg/dL
  sUA Change from Baseline, Median: -8.80 mg/dL
  sUA Observed, Mean (SD): 0.30 (0.000) mg/dL
  sUA Observed, Median: 0.30 mg/dL
[5]
  sUA < 6 mg/dL, %: (100%)
  sUA Change from Baseline, Mean: -8.97 mg/dL
  sUA Change from Baseline, Median: -8.80 mg/dL
  sUA Observed, Mean: 0.30 mg/dL
  sUA Observed, Median: 0.30 mg/dL
[6]
  sUA < 6 mg/dL, n (%): 11 (100%)
  sUA Change from Baseline, Mean (SD): −8.97 (2.810) mg/dL
  sUA Change from Baseline, Median: -8.80 mg/dL
  sUA Observed, Mean (SD): 0.30 (0.000) mg/dL
  sUA Observed, Median: 0.30 mg/dL
[7]
  sUA < 6 mg/dL, %: (100%)
  sUA Change from Baseline, Mean: -8.97 mg/dL
  sUA Change from Baseline, Median: -8.80 mg/dL
  sUA Observed, Mean: 0.30 mg/dL
  sUA Observed, Median: 0.30 mg/dL
[8]
  sUA < 6 mg/dL, n (%): 11 (100%)
  sUA Change from Baseline, Mean (SD): −8.97 (2.810) mg/dL
  sUA Change from Baseline, Median: -8.80 mg/dL
  sUA Observed, Mean (SD): 0.30 (0.000) mg/dL
  sUA Observed, Median: 0.30 mg/dL
[9]
  sUA < 6 mg/dL, %: (100%)
  sUA Change from Baseline, Mean: -8.97 mg/dL
  sUA Change from Baseline, Median: -8.80 mg/dL
  sUA Observed, Mean: 0.30 mg/dL
  sUA Observed, Median: 0.30 mg/dL
[10]
  sUA < 6 mg/dL, n (%): 11 (100%)
  sUA Change from Baseline, Mean (SD): −8.97 (2.810) mg/dL
  sUA Change from Baseline, Median: -8.80 mg/dL
  sUA Observed, Mean (SD): 0.30 (0.000) mg/dL
  sUA Observed, Median: 0.30 mg/dL
[11]
  sUA < 6 mg/dL, %: (100%)
  sUA Change from Baseline, Mean: -9.18 mg/dL
  sUA Change from Baseline, Median: -9.30 mg/dL
  sUA Observed, Mean: 0.30 mg/dL
  sUA Observed, Median: 0.30 mg/dL
[12]
  sUA < 6 mg/dL, n (%): 5 (100%)
  sUA Change from Baseline, Mean (SD): −9.18 (4.135) mg/dL
  sUA Change from Baseline, Median: -9.30 mg/dL
  sUA Observed, Mean (SD): 0.30 (0.000) mg/dL
  sUA Observed, Median: 0.30 mg/dL
[13]
  sUA < 6 mg/dL, %: (100%)
  sUA Change from Baseline, Mean: -8.97 mg/dL
  sUA Change from Baseline, Median: -8.80 mg/dL
  sUA Observed, Mean: 0.30 mg/dL
  sUA Observed, Median: 0.30 mg/dL
